Results published in article PMC3950707.

Columns and labels:
[1] = system: LexA; experiment: single-molecule FRET (smTIRF), koff/kon; details: smTIRF and PIFE on DNA: 10 mM Tris-HCl pH 8.0, 130 mM NaCl, 10% glycerol, 0.005% Tween20, 1% BME (0.1 mg/ml BSA in smTIRF and LexA PIFE), nucleosome smTIRF and …
[2] = system: Gal4(1-147) (Saccharomyces cerevisiae); experiment: ensemble PIFE; details: 100 pM DNA (titration-limited), Hill 1.5; legend error 5; internal aminoC6dT in both primers; smTIRF and PIFE on DNA: 10 mM Tris-HCl pH 8.0, 130 mM NaCl, 10% glycerol, 0.005% Tween20, 1% BME (0.1 mg/ml BSA in smTIRF and LexA PIFE); nucleosome smTIRF and …
[3] = system: Gal4(1-147) (Saccharomyces cerevisiae); experiment: EMSA; details: 200 pM DNA (titration-limited), Hill 1.5; legend 240 +/- 10; poly-dIdC; internal aminoC6dT in both primers; smTIRF and PIFE on DNA: 10 mM Tris-HCl pH 8.0, 130 mM NaCl, 10% glycerol, 0.005% Tween20, 1% BME (0.1 mg/ml BSA in smTIRF and LexA PIFE); nucleosome smTIRF and …
[4] = system: Gal4(1-147) (Saccharomyces cerevisiae); experiment: single-molecule PIFE intensity histograms (smTIRF); details: Hill 2; Fig 4 legend gives 5 +/- 1; koff << 5e-4 s-1; internal aminoC6dT in both primers; smTIRF and PIFE on DNA: 10 mM Tris-HCl pH 8.0, 130 mM NaCl, 10% glycerol, 0.005% Tween20, 1% BME (0.1 mg/ml BSA in smTIRF and LexA PIFE); nucleosome smTIRF and …
[5] = system: LexA; experiment: ensemble PIFE; details: 0.2 nM DNA, non-cooperative fit; aminoC6 at 5' end; aminoC6dT in reverse primer; smTIRF and PIFE on DNA: 10 mM Tris-HCl pH 8.0, 130 mM NaCl, 10% glycerol, 0.005% Tween20, 1% BME (0.1 mg/ml BSA in smTIRF and LexA PIFE); nucleosome smTIRF and …
[6] = system: LexA; experiment: single-molecule PIFE (smTIRF), koff/kon; details: aminoC6 at 5' end; aminoC6dT in reverse primer; smTIRF and PIFE on DNA: 10 mM Tris-HCl pH 8.0, 130 mM NaCl, 10% glycerol, 0.005% Tween20, 1% BME (0.1 mg/ml BSA in smTIRF and LexA PIFE); nucleosome smTIRF and …
[7] = system: Gal4(1-147) (Saccharomyces cerevisiae); experiment: single-molecule FRET (smTIRF), koff/kon; details: aminoC6 at 5' end; smTIRF and PIFE on DNA: 10 mM Tris-HCl pH 8.0, 130 mM NaCl, 10% glycerol, 0.005% Tween20, 1% BME (0.1 mg/ml BSA in smTIRF and LexA PIFE); nucleosome smTIRF and …

LexA dinucleosome array showed a Kd ([1]; internal aminoC6dT) of 40 µM.
dsDNA-Gal4 was tested, and the K half [2] was 0.042 nM, the K half [3] was 0.242 nM and the K half [4] was 5 pM.
dsDNA-LexA gave a Kd [5] of 0.13 nM and a Kd [6] of 0.07 nM.
For nucDNA-Gal4 mononucleosome, the Kd [7] was 0.051 nM.
For nucDNA-LexA mononucleosome, the Kd ([1]; aminoC6 at 5' end) was 40 µM.
